Measured values reported in PMC3684277.

Target: HCMV capsid (icosahedral T=16 capsid shell of MCP, mCP, mC-BP and SCP) (human cytomegalovirus strain AD169)
Assay: co-sedimentation

With “UL32-encoded basic phosphorylated protein pp150 (natural protein)” the % decrease in chemically treated particles was 5%.
